For assay [1], the target named is T1, recombinant (r)HA of pH1N1 A/California/04/2009 (Protein Sciences Corp.) (influenza A virus A/California/04/2009 …, UniProt P26140 18-529).
For assay [2], the target named is T1, recombinant (r)HA of pH1N1 …. This is another data set of the same source.

B1: KPF1 human monoclonal antibody (hmAb) (antibody, V domains shown)
VH: EVQLLESGGGLVQPGGSLRISCAASGSTFGDFAMSWVRQSPGRGLEWVSVTSAGGDRTYYADSVKGRFTISRDNSKNTLYLQMNSLRGEDTAMYYCARLDSSGFHYGRPGRNWGQGTLVTVSS
VL: DIQMTHSPPSLSASVGDRITITCQASQDISYYLIWYQQKPGKAPKPLIYDASNLEAGVPSRFSASGSGTDFTLTISSLQPEDLATYYCQQYKSLPYTFGQGTKLEIK
As to B1, the dissociation constant (Kd) in assay [1] was found to be 178 pM. Further, in assay [2], the off-rate constant (koff) was found to be 3.42e-05 s⁻¹ and the kon was determined as 192000 M⁻¹ s⁻¹.

The Kd is the equilibrium constant for the complex coming apart. As a reminder, the koff is the first-order rate constant of dissociation. As a reminder, the kon is the second-order rate constant of association.

Source of the values: patent US20200140526A1 (UNIVERSITY OF ROCHESTER, published 2020).
